# In paper PMC10072977 (Biochemical and Biophysical Research Communications, 2023):
# B1: rabbit monoclonal antibody (RmAb) 9H1 (antibody, V domains shown)
# VH: QSVEESGGRLVTPGTPLTLTCTVSGFSLSRYAMSWVRQAPGKGLEWIGIIVDSGHTAYASWAKGRFTISRTSTTVDLKMTSLTTEDTATYFCARETGGGAFYVFEFWGPGTVVTVSS
# VL: QVLTQTPSSVSAAVGGTVTINCQASEDIYDNLVWYQQKPGQPPKLLIYDASTLAFGVSSRFRGSGSGTHFTLTMRDVQCDDAATYYCQGEFSCSSGDCTAFGGGTEVVVK
# Target: SARS-CoV-2 WT RBD protein (SARS-CoV-2 wild type, UniProt P0DTC2)
# Experiment: ELISA
binder,measurement,value
B1,binding result,binds
